# Experimental data from patent US20260151494A1 (ARO BIOTHERAPEUTICS, published 2026).
# Residue numbers refer to the chain shown, from its start.
# B1: CD71-binding FN3 domain of SEQ ID NO: 119 (designed binder)
# chain: MSLPAPKNLVVSRVTEDSARLSWTAPDAAFDSFFIGYLEPQPPGEAIELYVPGSERSYDLTGLKPGTEYNVTIQGVKGGFPSDPLVAFFTT
# B2: CD71-binding FN3 domain of SEQ ID NO: 120 (designed binder)
# chain: MSLPAPKNLVVSRVTEDSARLSWTAPDAAFDSFEIAYQELSLWGEAIVLTVPGSERSYDLTGLKPGTEYWVQIGGVKGGEWSAPLSAIFTT
# B3: CD71-binding FN3 domain of SEQ ID NO: 152 (designed binder)
# chain: B2 chain with E34D, A36G, Q38F, L40A, S41T, L42Y, W43Y, E80N
# B4: CD71-binding FN3 domain of SEQ ID NO: 173 (designed binder)
# chain: B2 chain with W70Y, Q72H, E80I, A83S, S86V, I88H
# B5: CD71-binding FN3 domain of SEQ ID NO: 159 (designed binder)
# chain: B2 chain with A36V, L40N, L42A, W43Y, E80N, F89S
# B6: CD71-binding FN3 domain of SEQ ID NO: 131 (designed binder)
# chain: B2 chain with Q38F, L40N, S41D, L42W, W43A, W70V, Q72F, E80D, W81F, A83P
# B7: CD71-binding FN3 domain of SEQ ID NO: 156 (designed binder)
# chain: B2 chain with A36G, Q38F, L40M, L42W, W43T, W70V, Q72F, E80N
# B8: CD71-binding FN3 domain of SEQ ID NO: 164 (designed binder)
# chain: B1 chain with E48H, N70W, T72Q, Q74G, F80N, P81W, D83A, V86S, F88I
# B9: CD71-binding FN3 domain of SEQ ID NO: 175 (designed binder)
# chain: B2 chain with W70V, Q72F, E80V, A83V
# B10: CD71-binding FN3 domain of SEQ ID NO: 157 (designed binder)
# chain: B2 chain with A36G, Q38G, L40F, S41T, L42Y, W43Y, E80N, A83N
# B11: CD71-binding FN3 domain of SEQ ID NO: 176 (designed binder)
# chain: B2 chain with E34F, A36G, Q38L, L40P, S41Q, L42P, W43P, V48H, T50F, E80N
# B12: CD71-binding FN3 domain of SEQ ID NO: 171 (designed binder)
# chain: B2 chain with A36G, Q38F, L40N, S41L, L42Y, W43L, A83S
# B13: CD71-binding FN3 domain of SEQ ID NO: 155 (designed binder)
# chain: B2 chain with K7E, A36G, Q38F, L40N, S41L, L42Y, W43L, E80V, A83R
# B14: CD71-binding FN3 domain of SEQ ID NO: 149 (designed binder)
# chain: B2 chain with E34D, A36G, Q38F, S41R, L42Y, W43Y, Q72S, E80T, W81Y
# B15: CD71-binding FN3 domain of SEQ ID NO: 158 (designed binder)
# chain: B2 chain with Q38F, L40R, S41T, L42W, W43F, E80D, A83K
# B16: CD71-binding FN3 domain of SEQ ID NO: 170 (designed binder)
# chain: B2 chain with A36G, Q38F, L40N, S41L, L42Y, W43L, E80N, A83T
# B17: CD71-binding FN3 domain of SEQ ID NO: 151 (designed binder)
# chain: MSLPAPKNLVVSRITEDSARLSWTAPDAAFDSFEIAYFETCRTGEAIVLTVPGSERSYDLTGLKPGTEYRVWIGGVKGGVWSRPLSAIVTT
# B18: CD71-binding FN3 domain of SEQ ID NO: 181 (designed binder)
# chain: B2 chain with A36G, Q38F, L40N, S41D, L42Y, W43F, E80N
# B19: CD71-binding FN3 domain of SEQ ID NO: 130 (designed binder)
# chain: B2 chain with Q38F, L40R, S41T, L42W, W43F, E80D
# B20: CD71-binding FN3 domain of SEQ ID NO: 166 (designed binder)
# chain: B2 chain with A36G, Q38F, L40N, S41L, L42Y, W43L, V76I, E80N
# B21: CD71-binding FN3 domain of SEQ ID NO: 132 (designed binder)
# chain: B2 chain with A36G, Q38F, L40N, S41L, L42Y, W43L, G79V, E80N
# B22: CD71-binding FN3 domain of SEQ ID NO: 144 (designed binder)
# chain: B2 chain with A36G, Q38F, L40N, S41L, L42Y, W43L, G62S, E80N, I88T
# B23: CD71-binding FN3 domain of SEQ ID NO: 124 (designed binder)
# chain: B2 chain with T15I, A36G, Q38F, L40N, S41L, L42Y, W43L, E80N
# B24: CD71-binding FN3 domain of SEQ ID NO: 141 (designed binder)
# chain: B2 chain with A36G, Q38F, L40N, S41L, L42Y, W43L, E80N, I88Y
# B25: CD71-binding FN3 domain of SEQ ID NO: 177 (designed binder)
# chain: B2 chain with A36G, Q38F, L40N, S41L, L42Y, W43L, G62S, E80N
# B26: CD71-binding FN3 domain of SEQ ID NO: 160 (designed binder)
# chain: B2 chain with A36G, Q38F, L40N, S41L, L42Y, W43L, E80N, A83V
# B27: CD71-binding FN3 domain of SEQ ID NO: 126 (designed binder)
# chain: B2 chain with A29V, W70Y, Q72H, E80I, A83S, I88Y
# B28: CD71-binding FN3 domain of SEQ ID NO: 146 (designed binder)
# chain: MSLPAPKNLVVSRVTEDSARLSWTAPDAAFDSFDIGYFENTYEGEAIVLTVPGSERSYDLTGLKPGTEYVVWIGGVKGGSYSSPLSAIFTT
# B29: CD71-binding FN3 domain of SEQ ID NO: 150 (designed binder)
# chain: B28 chain with T41S, E43A, V70Y, W72S, G74A, S80R, Y81F, S83P
# B30: CD71-binding FN3 domain of SEQ ID NO: 182 (designed binder)
# chain: B28 chain with K7E, D34E, F38W, T41A, E43K, W72F, S80V, Y81W, S83V, A87V
# B31: CD71-binding FN3 domain of SEQ ID NO: 174 (designed binder)
# chain: B2 chain with D27N, A36G, Q38F, L40N, S41L, L42Y, W43L, E80N
# B32: CD71-binding FN3 domain of SEQ ID NO: 169 (designed binder)
# chain: B2 chain with A36G, Q38F, L40N, S41L, L42Y, W43L, E80N, I88T
# B33: CD71-binding FN3 domain of SEQ ID NO: 139 (designed binder)
# chain: B28 chain with D34E, T41L, E43L, V70W, W72Q, S80A, S83T
# B34: CD71-binding FN3 domain of SEQ ID NO: 122 (designed binder)
# chain: B28 chain with L21P, D34E, T41L, E43L, V70Y, W72H, S80I, Y81W, I88Y
# B35: CD71-binding FN3 domain of SEQ ID NO: 172 (designed binder)
# chain: B2 chain with L3R, D27G, Q38F, L40R, S41T, L42W, W43F, G53S, E80D, A83K
# B36: CD71-binding FN3 domain of SEQ ID NO: 148 (designed binder)
# chain: B2 chain with A36V, L40N, L42A, W43Y
# Biological target: T1, apical domain of cynomolgus CD71 (cynomolgus, UniProt A0A2K5X958 189-383)
# T1 construct: domain: apical domain; also called Cyno apical domain
# Experiment: primary ELISA, signal ratio to HSA
# T1 sequence (A0A2K5X958 entry or part of it): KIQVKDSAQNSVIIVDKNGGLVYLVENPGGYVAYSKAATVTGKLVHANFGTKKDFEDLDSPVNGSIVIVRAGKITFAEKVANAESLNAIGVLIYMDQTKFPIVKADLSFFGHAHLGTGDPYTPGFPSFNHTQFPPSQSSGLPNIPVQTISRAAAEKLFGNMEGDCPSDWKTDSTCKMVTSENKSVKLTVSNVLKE
row,Cyno apical domain:HSA,Binder
1,394,B1
2,534,B2
3,291,B3
4,300,B4
5,72,B5
6,145,B6
7,83,B7
8,195,B8
9,91,B9
10,530,B10
11,149,B11
12,122,B12
13,220,B13
14,455,B14
15,99,B15
16,166,B16
17,28,B17
18,216,B18

row,Cyno apical domain:HSA,Binder
1,196,B19
2,173,B20
3,201,B21
4,150,B22
5,42,B23
6,245,B24
7,156,B25
8,100,B26
9,382,B27
10,128,B28
11,118,B29
12,131,B30
13,165,B31
14,478,B32
15,496,B33
16,80,B34
17,37,B35
18,408,B36

# Biological target: T2, human CD71 extracellular domain (human, UniProt P02786 89-760)
# T2 construct: also called hCD71; human CD71-ECD
# Experiment: primary ELISA, signal ratio to HSA
# T2 sequence (P02786 89-760): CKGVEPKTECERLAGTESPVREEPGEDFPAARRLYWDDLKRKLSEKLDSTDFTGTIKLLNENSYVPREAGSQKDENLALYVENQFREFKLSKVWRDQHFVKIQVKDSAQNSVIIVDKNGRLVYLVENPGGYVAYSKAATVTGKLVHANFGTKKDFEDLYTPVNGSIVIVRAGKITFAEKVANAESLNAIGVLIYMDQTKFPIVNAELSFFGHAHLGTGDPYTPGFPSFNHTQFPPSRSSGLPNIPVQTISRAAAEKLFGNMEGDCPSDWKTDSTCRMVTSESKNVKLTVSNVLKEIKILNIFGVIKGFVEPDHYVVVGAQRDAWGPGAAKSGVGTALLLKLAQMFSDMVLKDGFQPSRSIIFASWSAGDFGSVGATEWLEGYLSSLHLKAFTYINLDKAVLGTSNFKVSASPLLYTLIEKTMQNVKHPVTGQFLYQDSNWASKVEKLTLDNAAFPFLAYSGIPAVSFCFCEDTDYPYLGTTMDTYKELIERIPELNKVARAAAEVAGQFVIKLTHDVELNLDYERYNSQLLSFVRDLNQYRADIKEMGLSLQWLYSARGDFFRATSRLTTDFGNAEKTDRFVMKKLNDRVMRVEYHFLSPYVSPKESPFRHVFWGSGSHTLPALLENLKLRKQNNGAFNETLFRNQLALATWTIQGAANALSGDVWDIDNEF
row,hCD71:HSA,Binder
1,441,B1
2,443,B2
3,164,B3
4,234,B4
5,40,B5
6,101,B6
7,69,B7
8,286,B8
9,21,B9
10,355,B10
11,172,B11
12,109,B12
13,151,B13
14,342,B14
15,96,B15
16,127,B16
17,22,B17
18,133,B18

row,hCD71:HSA,Binder
1,147,B19
2,153,B20
3,142,B21
4,134,B22
5,43,B23
6,192,B24
7,110,B25
8,88,B26
9,227,B27
10,112,B28
11,98,B29
12,101,B30
13,127,B31
14,289,B32
15,409,B33
16,105,B34
17,31,B35
18,212,B36

# Biological target: T1, apical domain of cynomolgus CD71
# Experiment: primary ELISA; note: test concentration or dose not given here
row,RLU,Binder
1,6.29e+06 RLU,B1
2,5.13e+06 RLU,B2
3,4.21e+06 RLU,B3
4,5.65e+06 RLU,B4
5,4.77e+06 RLU,B5
6,4.81e+06 RLU,B6
7,4.43e+06 RLU,B7
8,3.78e+06 RLU,B8
9,4.29e+06 RLU,B9
10,4.32e+06 RLU,B10
11,6.06e+06 RLU,B11
12,4.93e+06 RLU,B12
13,5.19e+06 RLU,B13
14,5e+06 RLU,B14
15,4.63e+06 RLU,B15
16,5e+06 RLU,B16
17,5.1e+06 RLU,B17
18,4.61e+06 RLU,B18

row,RLU,Binder
1,5e+06 RLU,B19
2,5.02e+06 RLU,B20
3,5.15e+06 RLU,B21
4,5.3e+06 RLU,B22
5,4.89e+06 RLU,B23
6,5.4e+06 RLU,B24
7,4.54e+06 RLU,B25
8,5.02e+06 RLU,B26
9,5.27e+06 RLU,B27
10,4.96e+06 RLU,B28
11,4.18e+06 RLU,B29
12,4.96e+06 RLU,B30
13,4.71e+06 RLU,B31
14,4.35e+06 RLU,B32
15,4.49e+06 RLU,B33
16,4.2e+06 RLU,B34
17,5.23e+06 RLU,B35
18,4.72e+06 RLU,B36

# Biological target: T2, human CD71 extracellular domain
# Experiment: primary ELISA; note: test concentration or dose not given here
row,RLU,Binder
1,7.04e+06 RLU,B1
2,4.26e+06 RLU,B2
3,2.36e+06 RLU,B3
4,4.41e+06 RLU,B4
5,2.64e+06 RLU,B5
6,3.35e+06 RLU,B6
7,3.68e+06 RLU,B7
8,5.55e+06 RLU,B8
9,1.01e+06 RLU,B9
10,2.89e+06 RLU,B10
11,7.01e+06 RLU,B11
12,4.4e+06 RLU,B12
13,3.55e+06 RLU,B13
14,3.77e+06 RLU,B14
15,4.48e+06 RLU,B15
16,3.81e+06 RLU,B16
17,4.04e+06 RLU,B17
18,2.84e+06 RLU,B18

row,RLU,Binder
1,3.76e+06 RLU,B19
2,4.44e+06 RLU,B20
3,3.63e+06 RLU,B21
4,4.74e+06 RLU,B22
5,5.01e+06 RLU,B23
6,4.22e+06 RLU,B24
7,3.22e+06 RLU,B25
8,4.38e+06 RLU,B26
9,3.13e+06 RLU,B27
10,4.34e+06 RLU,B28
11,3.49e+06 RLU,B29
12,3.81e+06 RLU,B30
13,3.61e+06 RLU,B31
14,2.63e+06 RLU,B32
15,3.7e+06 RLU,B33
16,5.5e+06 RLU,B34
17,4.34e+06 RLU,B35
18,2.45e+06 RLU,B36
